The record followed here is PMC7529705.

Several values for one entry are separate records, joined by “and”; a condition that tells them apart may be missing. Equal values may be shown once.

The test concerns the target WD-40 repeat-containing protein 5 (WDR5), full-length (human) (UniProt P61964). The experiment in a line: ITC.
As for “Histone H3 1–7aa H3R2me1 peptide (from UniProt P68431 2-8)”, the Kd is 8.1 µM and 9 µM.
With “Histone H3 1–7aa H3R2me2s peptide (from UniProt P68431 2-8)”, the Kd was 10.6 µM and 10.2 µM.
“Histone H3 1–7aa unmodified peptide (from UniProt P68431 2-8)”: the Kd is 11 µM and 11.8 µM.
